According to publication PMC3115021, “Dynamics of Cdk1 Substrate Specificity during the Cell Cycle” (Molecular Cell, 2011):

How the values were obtained:
Test in all cases: Quantitative phosphorylation assay of T33-Sic1ΔC constructs and recombinant substrates
Format in all cases: biochemical
Details in all cases: Table S2; purified protein substrate; relative values, not divided by [S]
Clb3hpm-Cdk1 = molecular target: T1, Clb3hpm-Cdk1 (Saccharomyces cerevisiae, UniProt P00546+P24870)
T1 construct: made in house; host or cells: S. cerevisiae strain MK0168 (gal-CLB3hpm-TAP, sic1 deleted); Cks1 from bacteria
Description: (§1) For the quantitative phosphorylation assays of T33-Sic1ΔC constructs and recombinant substrates, substrate concentrations were kept in the range of 0.5–2 μM (in the linear [S] versus v0 range, several-fold below the estimated KM value), and initial velocity conditions were defined as an initial substrate turnover of up to 10% of the total turnover. For the steady-state peptide kinetics of the Histone peptide PKTPKKAKKL, a similar assay composition was used as for protein substrates, and phosphocellulose paper was used for the quantification of the phosphorylated substrate.
(§2) Supplemental Experimental Procedures
(§3) Plasmid constructs and yeast strains
(§4) For tandem affinity purification (TAP) of cyclin-Cdk1 complexes, the cyclin genes were cloned into the 2 micron vector pRSAB1234 containing a GAL1 promoter and the C-terminal TAP-tag. To purify different 6His-T33-Sic1ΔC forms for kinase assays, the C-terminally truncated fragment of Sic1 (with a stop codon inserted after amino acid 215) was cloned into the NheI/BamHI site of the bacterial expression vector pET28a (Invitrogen). Mutagenesis of cyclins or substrates was performed using single-stranded pRSAB1234 or pET28a vector constructs as templates. The triple mutants in the hydrophobic patch (hpm) of Clb5 and Clb2 were described previously (Loog and Morgan, 2005), and the hpm of Clb3 (Phe-201, Leu-205 and Trp-208 mutated to alanines) was designed according to sequence homology with other B-type cyclins. In T33-Sic1ΔC constructs, the other Cdk sites bearing the consensus motif S/T-P were mutated to Ala-Ala in order to prevent any possible (pseudo)substrate competition. The other Cdk substrates were cloned as full-length forms into bacterial expression vectors pET28a or pGEX-4T-1. Cdh1 was purified using the baculovirus system and was a kind gift from Monica Rodrigo-Brenni (UCSF). […]
The […]
(§5) pRSAB1234 analogously to the cyclin-Cdk1 complexes. For C-terminal tagging of cyclin genes in their chromosomal loci, the Pringle method was applied (Longtine et al., 1998). Lists of plasmid […]
(§6) The TAP method was applied for purification of cyclin-Cdk1 complexes and Swe1 as described previously for Clb5-TAP-Cdk1 and Clb2-TAP-Cdk1 (Puig et al., 2001; Ubersax et al., 2003). […]
(§7) tagged recombinant T33-Sic1ΔC constructs and substrates were cloned into the pET28a vector and purified by standard cobalt affinity chromatography and elution with 200 mM imidazole. 6His-Fin1 was purified as described previously (Woodbury and Morgan, 2007). Substrates cloned into the pGEX-4T-1 were purified on glutathione agarose columns using 5 mM reduced glutathione for elution. Cks1 was purified as described previously (Reynard et al., 2000). The optimal working concentration for purified Cks1 was taken as 500 nM based on optimization performed for cyclin-Cdk1 preparations and T33-Sic1ΔC as a substrate.
(§8) For the quantitative phosphorylation assays of T33-Sic1ΔC constructs and recombinant substrates, substrate concentrations were kept in the range of 0.5-2 μM (in the linear [S] vs v0 range, several-fold below the estimated KM value), and the initial velocity conditions were defined as an initial substrate turnover ranging up to 10% of the total turnover. The latter was estimated by a long-term incubation with excess amounts of cyclin-Cdk1 and 32P-γ-ATP in the standard reaction mixture given below. About 1-10 nM of purified kinase complex was used, reaction aliquots were taken at two or more time points, and the reaction was stopped by SDS-PAGE sample buffer. The relative kcat/KM values for the substrates were calculated as the ratio of v0/[S], which was determined from at least two independent experiments. The basal composition of the assay mixture contained 50 mM Hepes, pH 7.4, 100 mM NaCl, 0.1% NP-40, 20 mM imidazole, 0.1 mg/ml 2HA peptide, 2% glycerol, 2 mM EGTA, 0.2 mg/ml BSA, […], and 500 μM ATP (with added 32P-γ-ATP (Perkin Elmer)).
(§9) About 1-10 nM of purified kinase complex was used, reaction aliquots were taken at two or more […]

Clb5hpm-Cdk1 = molecular target: T2, Clb5hpm-Cdk1 (Saccharomyces cerevisiae, UniProt P00546)
T2 construct: made in house; host or cells: S. cerevisiae strain DOM0963 (gal-CLB5hpm-TAP, sic1 deleted); Cks1 from bacteria
T2 sequence (P00546 2-298 limits assumed): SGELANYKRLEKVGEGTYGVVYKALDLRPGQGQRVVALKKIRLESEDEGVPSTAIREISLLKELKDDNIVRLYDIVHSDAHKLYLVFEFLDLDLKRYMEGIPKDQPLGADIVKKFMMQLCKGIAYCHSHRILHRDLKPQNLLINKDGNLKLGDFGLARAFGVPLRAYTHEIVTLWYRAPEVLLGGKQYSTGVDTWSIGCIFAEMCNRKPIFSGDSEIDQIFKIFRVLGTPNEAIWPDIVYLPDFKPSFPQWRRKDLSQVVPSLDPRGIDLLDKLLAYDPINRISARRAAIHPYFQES
Description: as §1, §2, §3, §4
The […]
as §5, §6, §7, §8, §9

Clb2hpm-Cdk1 = molecular target: T3, Clb2hpm-Cdk1 (Saccharomyces cerevisiae, UniProt P00546)
T3 construct: made in house; host or cells: S. cerevisiae strain DOM0964 (gal-CLB2hpm-TAP, sic1 deleted); Cks1 from bacteria
T3 sequence (P00546 2-298 limits assumed): as above
Description: as §1, §2, §3, §4
The […]
as §5, §6, §7, §8, §9

Clb5-Cdk1 = molecular target: T4, Clb5-Cdk1 (Saccharomyces cerevisiae, UniProt P00546+P30283)
T4 construct: We purified the four cyclin-Cdk1 complexes from yeast; made in house; host or cells: S. cerevisiae strain DOM0076 (gal-CLB5-TAP, sic1 deleted); Cks1 from bacteria
T4 sequence (P00546 2-298 limits assumed): as above
T4 sequence (P30283 whole entry partner): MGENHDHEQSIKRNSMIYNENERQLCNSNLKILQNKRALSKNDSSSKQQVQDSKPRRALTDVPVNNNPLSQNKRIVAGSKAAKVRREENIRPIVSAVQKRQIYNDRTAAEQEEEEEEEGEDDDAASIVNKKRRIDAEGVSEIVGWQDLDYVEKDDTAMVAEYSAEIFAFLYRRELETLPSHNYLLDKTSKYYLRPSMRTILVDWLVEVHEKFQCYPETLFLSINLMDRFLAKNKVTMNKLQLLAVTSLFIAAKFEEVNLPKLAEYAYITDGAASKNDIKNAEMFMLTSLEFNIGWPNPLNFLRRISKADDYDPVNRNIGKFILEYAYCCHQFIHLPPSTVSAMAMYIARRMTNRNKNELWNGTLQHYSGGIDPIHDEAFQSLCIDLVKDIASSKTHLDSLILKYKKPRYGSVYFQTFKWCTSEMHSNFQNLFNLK
T4 sequence (P20486 whole entry partner): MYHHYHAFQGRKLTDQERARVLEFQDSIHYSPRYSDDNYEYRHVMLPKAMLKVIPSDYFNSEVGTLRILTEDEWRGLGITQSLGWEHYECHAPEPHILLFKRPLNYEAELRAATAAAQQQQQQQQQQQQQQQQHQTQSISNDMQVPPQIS

Clb2-Cdk1 = molecular target: T5, Clb2-Cdk1 (Saccharomyces cerevisiae, UniProt P00546+P24869)
T5 construct: We purified the four cyclin-Cdk1 complexes from yeast; made in house; host or cells: S. cerevisiae strain DOM0077 (gal-CLB2-TAP, sic1 deleted); Cks1 from bacteria
T5 sequence (P00546 2-298 limits assumed): as the sequence (P00546 2-298 limits assumed) above
T5 sequence (P24869 2-491 partner limits assumed): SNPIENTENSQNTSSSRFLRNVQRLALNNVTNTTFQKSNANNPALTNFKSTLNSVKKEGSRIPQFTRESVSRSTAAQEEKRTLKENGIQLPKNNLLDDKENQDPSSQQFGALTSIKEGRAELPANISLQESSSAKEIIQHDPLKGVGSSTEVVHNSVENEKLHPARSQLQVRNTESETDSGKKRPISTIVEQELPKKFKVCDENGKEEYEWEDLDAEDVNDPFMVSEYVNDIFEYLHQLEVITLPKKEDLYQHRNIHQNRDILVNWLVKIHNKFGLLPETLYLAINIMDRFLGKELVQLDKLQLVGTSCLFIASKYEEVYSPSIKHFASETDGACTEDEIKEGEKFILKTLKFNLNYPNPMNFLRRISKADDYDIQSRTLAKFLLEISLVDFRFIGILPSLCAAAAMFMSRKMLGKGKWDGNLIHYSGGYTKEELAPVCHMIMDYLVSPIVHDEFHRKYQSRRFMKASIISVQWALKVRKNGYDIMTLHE
T5 sequence (P20486 whole entry partner): as the sequence (P20486 whole entry partner) above

Clb3-Cdk1 = molecular target: T6, Clb3-Cdk1 (Saccharomyces cerevisiae, UniProt P00546+P24870)
T6 construct: We purified the four cyclin-Cdk1 complexes from yeast; made in house; host or cells: S. cerevisiae strain DOM0957 (gal-CLB3-TAP, sic1 deleted); Cks1 from bacteria
T6 sequence (P00546 2-298 limits assumed): as the sequence (P00546 2-298 limits assumed) above
T6 sequence (P24870 whole entry partner): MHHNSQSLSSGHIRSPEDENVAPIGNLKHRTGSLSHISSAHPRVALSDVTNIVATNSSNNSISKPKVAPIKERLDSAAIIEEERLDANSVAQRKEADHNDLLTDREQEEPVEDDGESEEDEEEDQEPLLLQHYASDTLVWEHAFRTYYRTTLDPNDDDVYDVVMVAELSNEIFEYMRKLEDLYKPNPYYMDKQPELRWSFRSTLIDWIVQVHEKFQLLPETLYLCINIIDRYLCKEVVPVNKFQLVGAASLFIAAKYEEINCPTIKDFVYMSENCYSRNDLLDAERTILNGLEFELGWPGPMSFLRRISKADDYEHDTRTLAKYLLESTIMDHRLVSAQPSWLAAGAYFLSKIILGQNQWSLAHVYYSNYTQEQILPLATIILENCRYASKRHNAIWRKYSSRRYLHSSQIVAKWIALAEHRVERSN
T6 sequence (P20486 whole entry partner): as the sequence (P20486 whole entry partner) above

Cln2-Cdk1 = molecular target: T7, Cln2-Cdk1 (Saccharomyces cerevisiae, UniProt P00546+P20438)
T7 construct: We purified the four cyclin-Cdk1 complexes from yeast; made in house; host or cells: S. cerevisiae strain DMY305 (galactose-induced); Cks1 from bacteria
T7 sequence (P00546 2-298 limits assumed): as the sequence (P00546 2-298 limits assumed) above
T7 sequence (P20438 whole entry partner): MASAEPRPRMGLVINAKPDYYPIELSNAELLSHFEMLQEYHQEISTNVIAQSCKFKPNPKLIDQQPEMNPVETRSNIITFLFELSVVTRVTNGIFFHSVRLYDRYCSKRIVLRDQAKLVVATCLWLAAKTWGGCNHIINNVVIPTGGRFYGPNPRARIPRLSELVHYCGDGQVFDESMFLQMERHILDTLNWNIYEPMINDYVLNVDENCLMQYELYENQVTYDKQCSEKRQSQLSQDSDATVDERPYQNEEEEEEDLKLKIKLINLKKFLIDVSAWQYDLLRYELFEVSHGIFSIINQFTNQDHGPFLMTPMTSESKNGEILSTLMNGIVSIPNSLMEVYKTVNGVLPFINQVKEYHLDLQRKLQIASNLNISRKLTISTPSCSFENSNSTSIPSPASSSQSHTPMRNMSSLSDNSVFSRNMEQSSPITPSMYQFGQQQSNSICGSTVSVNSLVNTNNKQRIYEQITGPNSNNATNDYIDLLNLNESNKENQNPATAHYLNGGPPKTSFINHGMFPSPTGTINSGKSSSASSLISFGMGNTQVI
T7 sequence (P20486 whole entry partner): as the sequence (P20486 whole entry partner) above

Row | Molecule | kcat/KM, Clb3hpm (Clb3hpm-Cdk1) [relative units] | kcat/KM, Clb5hpm (Clb5hpm-Cdk1) [relative units] | kcat/KM, Clb2hpm (Clb2hpm-Cdk1) [relative units] | kcat/KM, Clb5 (Clb5-Cdk1) [relative units] | kcat/KM, Clb2 (Clb2-Cdk1) [relative units] | kcat/KM, Clb3 (Clb3-Cdk1) [relative units] | kcat/KM, Cln2 (Cln2-Cdk1) [relative units]
1 | PXL1: purified yeast protein tested as Cdk1 substrate (protein, UniProt P36166 1-706, looked up) Paxillin-like protein 1: MYNSIYGSPFPKINPKVRYKTALERAGFDTKPRNPFSSQRNASTGSLQASVKSPPITRQRNVSAAPSVPVTMKSAYTASSKSAYSSVKGESDIYPPPVLENSERRSVTPPKNSNFTSSRPSDISRSISRPSERASQEDPFRFERDLDRQAEQYAASRHTCKSPANKEFQAADNFPFNFEQEDAGNTEREQDLSPIERSFMMLTQNDTASVVNSMNQTDNRGVLDQKLGKEQQKEESSIEYESEGQQEDENDIESLNFEPDPKLQMNLENEPLQDDFPEAKQEEKNTEPKIPEINVTRESNTPSLTMNALDSKIYPDDNFSGLESSKEQKSPGVSSSSTKVEDLSLDGLNEKRLSITSSENVETPYTATNLQVEQLIAQLDDVSLSRNAKLDMNGNCLNAVDRKASRFKKSSAYLSGYPSMDIPVTQQTSIVQNSNTNLSRQTILVDKGDVDEDAPSESTTNGGTPIFYKFKQSNVEYSNNEGMGSQETFRTKLPTIEALQLQHKRNITDLREEIDNSKSNDSHVLPNGGTTRYSSDADYKETEPIEFKYPPGEGPCRACGLEVTGKRMFSKKENELSGQWHRECFKCIECGIKFNKHVPCYILGDEPYCQKHYHEENHSICKVCSNFIEGECLENDKVERFHVDCLNCFLCKTAITNDYYIFNGEIPLCGNHDMEALLKEGIDNATSSNDKNNTLSKRRTRLINFN | 0.033 | 0.015 | 0.244 | 0.031 | 0.571 | 0.139 | 0.031
2 | SLI15: purified yeast protein tested as Cdk1 substrate (protein, UniProt P38283 1-698, looked up) Inner centromere protein SLI15: MDWAIKAARKKTQRKPGSTRSIIETLDDLNNLTTDAHSEINQRLYESSEWLRNNVYMNTLKYEDKKMEESLISPENTHNKMDVEFPKMKGEYELSNSQNDAAKDVTKTPRNGLHNDKSITPKSLRRKEVTEGMNRFSIHDTNKSPVEPLNSVKVDANESEKSSPWSPYKVEKVLRESSKTSESPINTKRFDNQTWAAKEEMENEPILQALKKAESVKVKPPPNSGIARSQRRSNMFVPLPNKDPLIIQHIPPTKSSGSIPKVRTVKESPIAFKKKSTINSPAIRAVENSDTAGSTKASSVFDRLSSIPTKSFENKISRGNVGHKYSSSSIDLTGSPMKKVSQKFKSINSTDTDMQEALRDIFSVKNKITKNNSPKGKNSRKSSIPRFDKTSLKLTTHKKLAIIAEQKKKSKHSSDVHKTGSRPHSISPTKISVDSSSPSKEVKNYYQSPVRGYLRPTKASISPNKNKNLTTSQTPHRLKIKEKTLRKLSPNIADISKPESRKSKNYRLTNLQLLPPAEAERDDLKKKFDKRLSGIMRSQQEHHRRKQEKQKRMSHLEQDLKKQTSFSNDYKDIRLKESLAPFDNHVRDTINKNTAFSTDNILATINTVDHREIIGNVTPKIASVNDSLPEINTDSEDEASVTLAAWAKSPYLQEQLIRQQDINPQTIFGPIPPLHTDEIFPNPRLNRLKPRQIVPKRS | 0.032 | 0.004 | 0.060 | 0.025 | 0.109 | 0.141 | 0.422
3 | SWI5: purified yeast protein tested as Cdk1 substrate (protein, UniProt P08153 1-709, looked up) Transcriptional factor SWI5: MDTSNSWFDASKVQSLNFDLQTNSYYSNARGSDPSSYAIEGEYKTLATDDLGNILNLNYGETNEVIMNEINDLNLPLGPLSDEKSVKVSTFSELIGNDWQSMNFDLENNSREVTLNATSLLNENRLNQDSGMTVYQKTMSDKPHDEKKISMADNLLSTINKSEINKGFDRNLGELLLQQQQELREQLRAQQEANKKLELELKQTQYKQQQLQATLENSDGPQFLSPKRKISPASENVEDVYANSLSPMISPPMSNTSFTGSPSRRNNRQKYCLQRKNSSGTVGPLCFQELNEGFNDSLISPKKIRSNPNENLSSKTKFITPFTPKSRVSSATSNSANITPNNLRLDFKINVEDQESEYSEKPLGLGIELLGKPGPSPTKSVSLKSASVDIMPTIPGSVNNTPSVNKVSLSSSYIDQYTPRGKQLHFSSISENALGINAATPHLKPPSQQARHREGVFNDLDPNVLTKNTDNEGDDNEENEPESRFVISETPSPVLKSQSKYEGRSPQFGTHIKEINTYTTNSPSKITRKLTTLPRGSIDKYVKEMPDKTFECLFPGCTKTFKRRYNIRSHIQTHLEDRPYSCDHPGCDKAFVRNHDLIRHKKSHQEKAYACPCGKKFNREDALVVHRSRMICSGGKKYENVVIKRSPRKRGRPRKDGTSSVSSSPIKENINKDHNGQLMFKLEDQLRRERSYDGNGTGIMVSPMKTNQR | 0.207 | 0.172 | 1.387 | 0.475 | 2.961 | 1.686 | 0.178
